Experimental findings from the Immune Epitope Database (IEDB) are described below.

The target of the first assay is HLA-A*11:01. As to the kind of experiment: IEDB peptide-MHC binding, purified MHC/competitive/radioactivity; ≥ and ≤ were set here for values at or beyond the usual limits of such assays. Conditions: source organism: Hepatitis B virus.
As usually defined, the IC50 is the concentration that gives 50% inhibition. In the case of AVNHYFKTR, the IC50 was 61 nM.

As to CALPFTSAR, the IC50 stood at 316 nM.

As for GSTHVSWPK, the IC50 came to 3.1 nM.

In the case of GTDNSVVLSR, the concentration for half-maximal inhibition (IC50) came out at 107 nM.

Turning to IMPARFYPK, the concentration for half-maximal inhibition (IC50) came out at 4.1 nM.

Turning to KVFVLGGCR, the IC50 turned out to be 6.5 nM.

On to LSLDVSAAFY, for which the IC50 amounted to 545 nM.

As for RLADEGLNR, the IC50 worked out at 245 nM.

TTDLEAYFK: the IC50 was determined as 6.5 nM.

The same assay, now with this note: source organism: Homo sapiens.
Turning to ATQIPSYKK, the half-maximal inhibitory concentration (IC50) amounted to 128 nM.

As for ESLFRAVITK, the concentration for half-maximal inhibition (IC50) stood at 1150 nM.

Still in this assay, the particulars now being: source organism: Human immunodeficiency virus 1.
On to ASQIYAGIK, for which the IC50 turned out to be 18 nM.

For the sequence AVDLSHFLK, the IC50 turned out to be 5 nM.

As for AVFIHNFKRK, the half-maximal inhibitory concentration (IC50) came to 7.1 nM.

For GIPHPAGLK, the 50% inhibitory concentration (IC50) stood at 35 nM.

KVLFLDGIDK: the concentration for half-maximal inhibition (IC50) was determined as 7.7 nM.

Consider KVYLAWVPAHK, for which the IC50 is 7.6 nM.

In the case of MTKILEPFR, the 50% inhibitory concentration (IC50) came to 378 nM.

In the case of QIYQEPFKNLK, the IC50 turned out to be 21 nM.

QMAVFIHNFK: the IC50 came to 8.4 nM.

RAKWNNTLK: the IC50 was 188 nM.

TVQPIVLPEK: the IC50 amounted to 2.4 nM.

Turning to YLAWVPAHK, the IC50 turned out to be 106 nM.

The same assay, now with this note: source organism: Influenza A virus (A/Puerto Rico/8/1934(H1N1)).
Turning to GTKVVPRGK, the IC50 amounted to 72 nM.

Turning to GVTAACSHAGK, the IC50 came out at 30 nM.

LTEKEGSYPK: the 50% inhibitory concentration (IC50) came to 121 nM.

On to NVKNLYEKVK, for which the IC50 came out at 51 nM.

As for PVTIGECPK, the IC50 was determined as 2.6 nM.

Consider RMGVQMQRFK, for which the IC50 is 94 nM.

Staying with this assay, now noted: source organism: Plasmodium falciparum.
LACAGLAYK: the IC50 was found to be 207 nM.
